Laboratory results as given in patent US20220002743.

B1: wild type protein kinase Nitab4.5_0003679 g0060.2 (SEQ ID No. 3) (protein)
chain: MAIEDNESCGSRVVDSATTSGRHQRKKLEVYNEVLRRLKESNNVEALEPGFDDELWAHFNRLPTRYAIDVNVERAEDVLTHKRLLHLAHVPANRPAFDVRLVQVASVPDGNLRDSFHSSFAKKEVSRSVHPPPAFGSSPNLEALACEAIKSEVQDEDTAAPCANFSRPMHEITFSTDDKPKLLSQLTSLLAELGLNIQEAHAFSTVDGYSLDVFVVDGWPYEEVVRLRTALEREILRNEKSWPSPSQSFIKQEQDLIKREFDHLTIPFDGIDVWEIDHQLLKFEYKIASGSYGDLYKGTYCSQDVAIKILKSERLNTELQTEFAQEVYIMRKVRHKNVVQFIGACTRPPNLCIVTEYMSGGSVYDYLHKRKGSFKLPTLLKVAIDVAKGMNYLHQNNIIHRDLKAANLLMDENEVIKVADFGVARVKAQTGVMTAETGTYRWMAPEVIEHKPYDHKADVFSFGVVLWELLTGKLPYEYLTPLQAAIGVVQKGLRPTIPKHTPPRLAELLETCWQQDPTSRPDFSEIVDILQQIAKEVGDERADRCKEKSAGGFFSALRRGHH
B2: K308M variant of protein kinase Nitab4.5_0003679 g0060.2 (SEQ ID No. 3) (protein)
chain: MAIEDNESCGSRVVDSATTSGRHQRKKLEVYNEVLRRLKESNNVEALEPGFDDELWAHFNRLPTRYAIDVNVERAEDVLTHKRLLHLAHVPANRPAFDVRLVQVASVPDGNLRDSFHSSFAKKEVSRSVHPPPAFGSSPNLEALACEAIKSEVQDEDTAAPCANFSRPMHEITFSTDDKPKLLSQLTSLLAELGLNIQEAHAFSTVDGYSLDVFVVDGWPYEEVVRLRTALEREILRNEKSWPSPSQSFIKQEQDLIKREFDHLTIPFDGIDVWEIDHQLLKFEYKIASGSYGDLYKGTYCSQDVAIMILKSERLNTELQTEFAQEVYIMRKVRHKNVVQFIGACTRPPNLCIVTEYMSGGSVYDYLHKRKGSFKLPTLLKVAIDVAKGMNYLHQNNIIHRDLKAANLLMDENEVIKVADFGVARVKAQTGVMTAETGTYRWMAPEVIEHKPYDHKADVFSFGVVLWELLTGKLPYEYLTPLQAAIGVVQKGLRPTIPKHTPPRLAELLETCWQQDPTSRPDFSEIVDILQQIAKEVGDERADRCKEKSAGGFFSALRRGHH

Target: myelin basic protein
Sequence (P02687 whole entry): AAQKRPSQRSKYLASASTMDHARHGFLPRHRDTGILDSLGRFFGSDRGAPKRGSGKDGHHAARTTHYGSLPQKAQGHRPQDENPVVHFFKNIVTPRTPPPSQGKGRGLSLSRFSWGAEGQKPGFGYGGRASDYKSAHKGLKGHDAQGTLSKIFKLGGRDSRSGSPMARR

Protein | in vitro kinase reaction; phosphorylation detected by Pro-Q Diamond phosphoprotein gel stain after SDS-PAGE
B1 | K308 (i.e. the wild type SEQ ID No. 3) is an active protein kinase
B2 | the variant K308M is not an active kinase
